We go through two molecules from publication PMC8225817, “The mineralocorticoid receptor leads to increased expression of EGFR and T-type calcium channels that support HL-1 cell hypertrophy”.

The target of data set [1] is T1, rhSP1 (specificity protein 1) (human, UniProt P08047 1-785). Briefly: EMSA; 10 mM Tris, 50 mM KCl, 5 mM MgCl2, 1 mM DTT, 5% glycerol, 1 mg/ml poly(dI-dC), 5 fmol probe, 30 min room temperature; pH not stated. The settings on record: protein: commercial; label: biotin. Background: A gel shift assay detects complexes by their altered migration in electrophoresis.
T1 sequence (P08047 whole entry): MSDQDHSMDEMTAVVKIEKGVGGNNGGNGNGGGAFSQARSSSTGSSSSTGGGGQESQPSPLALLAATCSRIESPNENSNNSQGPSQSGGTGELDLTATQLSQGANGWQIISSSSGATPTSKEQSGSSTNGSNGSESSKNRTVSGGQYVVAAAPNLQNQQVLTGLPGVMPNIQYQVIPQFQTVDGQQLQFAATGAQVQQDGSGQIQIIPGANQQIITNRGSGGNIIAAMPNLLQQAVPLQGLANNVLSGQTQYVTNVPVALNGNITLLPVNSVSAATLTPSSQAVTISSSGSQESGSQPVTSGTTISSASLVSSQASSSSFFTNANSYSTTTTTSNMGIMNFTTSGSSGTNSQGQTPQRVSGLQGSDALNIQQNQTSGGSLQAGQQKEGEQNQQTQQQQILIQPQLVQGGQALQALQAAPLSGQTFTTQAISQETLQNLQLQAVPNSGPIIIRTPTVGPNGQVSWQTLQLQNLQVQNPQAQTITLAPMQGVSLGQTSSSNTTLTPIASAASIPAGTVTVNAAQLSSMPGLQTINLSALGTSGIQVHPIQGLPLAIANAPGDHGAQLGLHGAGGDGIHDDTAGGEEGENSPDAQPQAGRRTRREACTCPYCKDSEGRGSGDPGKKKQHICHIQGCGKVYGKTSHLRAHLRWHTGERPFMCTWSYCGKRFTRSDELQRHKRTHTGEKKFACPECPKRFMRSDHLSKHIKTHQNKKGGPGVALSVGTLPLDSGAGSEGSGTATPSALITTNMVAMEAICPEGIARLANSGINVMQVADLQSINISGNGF
Data set [2] deals with T1, rhSP1 (specificity protein 1). Kind of data set: EMSA; same as -216G/-191C; 10 mM Tris, 50 mM KCl, 5 mM MgCl2, 1 mM DTT, 5% glycerol, 1 mg/ml poly(dI-dC), 5 fmol probe, 30 min room temperature; pH not stated. The following applies: protein: commercial; label: biotin.

B1: mMRE (-216G/-191C) (dsDNA)
DNA 1: GCAGCAGCCTCCGCCCCCCGCACGGTGTGAGCGCCCGCCGCGGCCGAGGCGGCCGGAGTCCCGAG
DNA 2: CTCGGGACTCCGGCCGCCTCGGCCGCGGCGGGCGCTCACACCGTGCGGGGGGCGGAGGCTGCTGC
Consider B1, for which, in data set [1], the binding result is recorded as “binds”.

B2: mMRE (-216G/-191A) (dsDNA)
DNA 1: GCAGCAGCCTCCGCCCCCCGCACGGTGTGAGCGCCCGACGCGGCCGAGGCGGCCGGAGTCCCGAG
DNA 2: CTCGGGACTCCGGCCGCCTCGGCCGCGTCGGGCGCTCACACCGTGCGGGGGGCGGAGGCTGCTGC
In the case of B2, the binding result in data set [2] is on record as “binds”.
